Measured values reported in patent publication US20110280900A1 (INTERVET INTERNATIONAL B V, published 2011).

Biological target: the molecule itself
Assay: immunoblot after non-denaturing gel; only the 65 kDa band detected

B1: Clostridium chauvoei toxin A (CctA), native secreted toxin in C. chauvoei culture supernatants (other)
chain: QENTCIVETPSEGVKTFTSSDTAYADYNCFKTNLSVTFIEDQHNNQLTALVSTEGSFIPSGLSRVGGYYQADMYWPSKYYTTLTTYDRNNRVKITKSIPTNQIDTVSVSETMGYSIGGSLSIEYGKEGPKAGGGINGSYTAQRSVTYDQPDYRTLLMKDSVNSASWEVAFNATKDGYDRDSYHGIYGNQLFMRYRLYNTGINNLTTDNNLSSLIVGGFSPKVVIALTAPKGTEESTVKVEYNRFNDQYRLRWSGTEWYGENNRNSRIDSSSESFILNWKNHTVEHAGY
notes: also called CctA toxin; mature CctA
- binding result: binds
